Experimental data published in article PMC2693034.

Tests used:
[1] = molecular target: IcmQ with a C-terminal 6xHis-tag (Legionella pneumophila); assay: […]
[2] = molecular target: IcmQ with a C-terminal 6xHis-tag (Legionella pneumophila); assay: SEC
[3] = molecular target: Qn(1-57), N-terminal domain of IcmQ (Legionella pneumophila); assay: SEC

Substance	stoichiometry N [1]	stoichiometry N [2]	stoichiometry N [3]
IcmQ with a C-terminal 6xHis-tag (natural protein)	2	2	
Qn(1-57), N-terminal domain of IcmQ (domain or fragment)			2
